Experiments:
[1] = molecular target: the molecule itself; assay: cryo-EM structure; single-particle cryo-EM of ACAD11 K* incubated with 100 uM 4-HV-CoA; 50 mM HEPES, 50 mM NaCl, 2% glycerol, 50 uM FAD, pH 7.5; D2 symmetry imposed; 2.6 A
[2] = molecular target: the molecule itself; assay: cryo-EM structure; single-particle cryo-EM of ACAD11 A* incubated with 100 uM 4-PV-CoA; 50 mM HEPES, 50 mM NaCl, 2% glycerol, 50 uM FAD, pH 7.5; D2 symmetry imposed; 3.6 A

Protein	stoichiometry N [1]	stoichiometry N [2]
ACAD11 K* mutant (kinase-inactive mouse acyl-CoA dehydrogenase 11) (enzyme, UniProt Q80XL6 1-779, looked up, catalytic aspartate of the kinase domain replaced with alanine; only the ACAD domains were resolved in the map; Cloned in pE-SUMOstar with a 5' SUMO tag; tag removed with Ulp1; Sample held FAD and 100 uM 4-HV-CoA; also called kinase-dead mutant; source: E. coli B21-CodonPlus (DE3)RIPL, purified (Ni-NTA, cation exchange, size-exclusion chromatography); not shown: SUMO, N-terminal, cleaved) METDVTSDTVEVLPQHKFDLRSLEAYLNQHLPGFGSDSRAVLTVTQYRSGQSNPTFFLQKGSQAYVLRKKPPGSLLPKAHKIDREFKIQKALFSIGFPVAKPLLYCRDASVIGTEFYVMEHVQGRIFRDFSIPGVSSAERAAIYVSVAETLAWLHSLDIRSLKLDKYGTGVGYCKRQVSTWTKQYQASAHQSIPAMDQLSTWLMKNLPDSDSEECLVHGAFKLDNIVFHPKECRVIAVLDWELSTFGHPLTDLAHLSLFYYWPRTLPMINRGSHIPENTGIPLMEELISIYCHRRGIDPNLPNWNFFMALSFFKLAGISQGVYRRYLMGNNSSEDSFLTANTVQPLAETGLQLSKRTLRTTPPQADAKSQLFAQSRRGQEVLTRVKQFMKQHVFPAEKEVAEYYAQSGNSAEKWGHPLVIEKLKEMAKAEGLWNLFLPAVSGLSQVDYALIAEETGKCFFAPDVFNCQAPDTGNMEVLHLYGSEQQKKQWLEPLLRGDITSVFCMTEPNVSSSDATNIECTIQRDGGGYIVNGKKWWSSGAGNPKCKIAIVLGRTESPSASRHRQHSMILVPMDTPGVELIRPLSVFGYMDNMHGGHWEVHFNHVRVPASNLILGEGRGFEISQGRLGPGRIHHCMRTVGLAERILQIMCDRAVQREAFKKKLYEHEVVAHWIAKSRIAIEEIRLLTLKAAHSIDTLGSASARKEIAMIKVAAPKAVCKIADWAIQVHGGAGVSQDYPLANMYAIIRTLRLADGPDEVHLSAIAKMELQDQARRLTARM	4	–
ACAD11 A* mutant (ACAD-inactive mouse acyl-CoA dehydrogenase 11) (enzyme, UniProt Q80XL6 1-779, looked up, catalytic aspartate of the ACAD domain replaced with asparagine; kinase and ACAD domains both resolved; Cloned in pE-SUMOstar with a 5' SUMO tag; tag removed with Ulp1; Sample held FAD and 100 uM 4-PV-CoA; also called ACAD-dead mutant; source: E. coli B21-CodonPlus (DE3)RIPL, purified (Ni-NTA, cation exchange, size-exclusion chromatography); not shown: SUMO, N-terminal, cleaved) METDVTSDTVEVLPQHKFDLRSLEAYLNQHLPGFGSDSRAVLTVTQYRSGQSNPTFFLQKGSQAYVLRKKPPGSLLPKAHKIDREFKIQKALFSIGFPVAKPLLYCRDASVIGTEFYVMEHVQGRIFRDFSIPGVSSAERAAIYVSVAETLAWLHSLDIRSLKLDKYGTGVGYCKRQVSTWTKQYQASAHQSIPAMDQLSTWLMKNLPDSDSEECLVHGDFKLDNIVFHPKECRVIAVLDWELSTFGHPLTDLAHLSLFYYWPRTLPMINRGSHIPENTGIPLMEELISIYCHRRGIDPNLPNWNFFMALSFFKLAGISQGVYRRYLMGNNSSEDSFLTANTVQPLAETGLQLSKRTLRTTPPQADAKSQLFAQSRRGQEVLTRVKQFMKQHVFPAEKEVAEYYAQSGNSAEKWGHPLVIEKLKEMAKAEGLWNLFLPAVSGLSQVDYALIAEETGKCFFAPDVFNCQAPDTGNMEVLHLYGSEQQKKQWLEPLLRGDITSVFCMTEPNVSSSDATNIECTIQRDGGGYIVNGKKWWSSGAGNPKCKIAIVLGRTESPSASRHRQHSMILVPMDTPGVELIRPLSVFGYMDNMHGGHWEVHFNHVRVPASNLILGEGRGFEISQGRLGPGRIHHCMRTVGLAERILQIMCDRAVQREAFKKKLYEHEVVAHWIAKSRIAIEEIRLLTLKAAHSIDTLGSASARKEIAMIKVAAPKAVCKIADWAIQVHGGAGVSQDYPLANMYAIIRTLRLANGPDEVHLSAIAKMELQDQARRLTARM	–	4
